We go through 17 sequences from the Immune Epitope Database (IEDB).

As a reminder, the Kd is the free concentration of one partner at which half of the binding sites on the other are occupied at equilibrium, for simple one-to-one binding. By IC50 is commonly meant the concentration at which inhibition is half-maximal.

The target of one experiment is HLA-C*06:02. In words: IEDB peptide-MHC binding, purified MHC/direct/fluorescence; filed as Kd, often an IC50 or EC50 that approximates it; ≥ and ≤ were set here for values at or beyond the usual limits of such assays.
In experiment [1] the target is HLA-A*01:01. Description: IEDB peptide-MHC binding, purified MHC/competitive/fluorescence; filed as Kd, often an IC50 or EC50 that approximates it; ≥ and ≤ were set here for values at or beyond the usual limits of such assays. The following applies: source organism: Shigella boydii CDC 3083-94.
In experiment [2] the target is HLA-B*58:01. Described as above.
Experiment [3] has as its target HLA-B*15:01. The experiment is described as above. The following applies: source organism: Shigella boydii CDC 3083-94.
Experiment [4] addresses HLA-A*03:01. Described as above. The following applies: source organism: Escherichia coli 101-1.
Experiment [5] deals with HLA-A*31:01. Described as above.
In a further experiment the target is HLA-A*11:01. Description: IEDB peptide-MHC binding, purified MHC/direct/fluorescence; filed as Kd, often an IC50 or EC50 that approximates it; ≥ and ≤ were set here for values at or beyond the usual limits of such assays.
Experiment [6] has as its target HLA-A*03:01. Described as above.
The target of the next experiment is HLA-B*45:06. Description: IEDB peptide-MHC binding, purified MHC/competitive/fluorescence; filed as Kd, often an IC50 or EC50 that approximates it; ≥ and ≤ were set here for values at or beyond the usual limits of such assays.
Another experiment deals with HLA-B*15:42. The experiment is described as above.
The target in the next experiment is HLA-B*83:01. The description is as above.
Another experiment deals with HLA-B*46:01. The description is as above. To be noted: source organism: Burkholderia vietnamiensis G4.
The target of the next experiment is HLA-C*15:02. In words: IEDB peptide-MHC binding, purified MHC/direct/fluorescence; filed as Kd, often an IC50 or EC50 that approximates it; ≥ and ≤ were set here for values at or beyond the usual limits of such assays. The following applies: source organism: Burkholderia vietnamiensis G4.
A further experiment addresses HLA-B*18:01. The description is as above. To be noted: source organism: Bordetella avium.
The next experiment addresses HLA-B*40:01. The description is as above.
The next experiment concerns the target HLA-C*14:02. The experiment is described as above. To be noted: source organism: Burkholderia vietnamiensis G4.
The target of experiment [7] is HLA-A*01:01. Described as above. To be noted: source organism: Escherichia coli O157:H7.
In the next experiment the target is HLA-B*44:02. Described as above. The following applies: source organism: Escherichia coli O157:H7.
Another experiment addresses HLA-B*08:01. The experiment is described as above. To be noted: source organism: Escherichia coli O157:H7.
The next experiment has as its target HLA-B*27:05. The description is as above. The following applies: source organism: Escherichia coli O157:H7.
The target in experiment [8] is HLA-A*02:01. The experiment is described as above. To be noted: source organism: Escherichia coli O157:H7.
The target in experiment [9] is HLA-B*07:02. Described as above. The following applies: source organism: Escherichia coli O157:H7.
The target of experiment [10] is HLA-B*58:01. Described as above. The following applies: source organism: Escherichia coli O157:H7.
The target of the next experiment is HLA-A*69:01. The experiment is described as above. To be noted: source organism: Escherichia coli O157:H7.
A further experiment has as its target HLA-A*26:01. The description is as above. The following applies: source organism: Escherichia coli O157:H7.
For experiment [11], the target named is HLA-B*15:01. The experiment is described as above. To be noted: source organism: Escherichia coli O157:H7.
The target in experiment [12] is HLA-A*31:01. The description is as above. To be noted: source organism: Escherichia coli O157:H7.
The target in the next experiment is HLA-C*07:02. The description is as above. To be noted: source organism: Escherichia coli O157:H7 str. EDL933.
Experiment [13] addresses HLA-A*02:01. Description: IEDB peptide-MHC binding, purified MHC/competitive/fluorescence; ≥ and ≤ were set here for values at or beyond the usual limits of such assays.
The next experiment concerns the target HLA-A*24:02. The experiment is described as above.
For experiment [14], the target named is HLA-B*07:02. The description is as above.
In experiment [15] the target is HLA-B*15:01. The description is as above.
In the next experiment the target is HLA-C*04:01. In words: IEDB peptide-MHC binding, purified MHC/competitive/fluorescence; filed as Kd, often an IC50 or EC50 that approximates it; ≥ and ≤ were set here for values at or beyond the usual limits of such assays. To be noted: source organism: Helicobacter pylori 26695.
The next experiment deals with HLA-B*51:01. In words: IEDB peptide-MHC binding, purified MHC/direct/fluorescence; filed as Kd, often an IC50 or EC50 that approximates it; ≥ and ≤ were set here for values at or beyond the usual limits of such assays. To be noted: source organism: Helicobacter pylori.
In a further experiment the target is HLA-B*15:03. Description: IEDB peptide-MHC binding, purified MHC/competitive/radioactivity; filed as Kd, often an IC50 or EC50 that approximates it; ≥ and ≤ were set here for values at or beyond the usual limits of such assays. The following applies: source organism: Vaccinia virus WR.
[16] abbreviates: source organism: Burkholderia mallei.
Where [17] appears, read: source organism: Rickettsia typhi str. Wilmington.
The mark [18] stands for this setting: source organism: Rickettsia typhi.
Setting [19] is: source organism: dengue virus type 4.
The mark [20] stands for this setting: source organism: Burkholderia vietnamiensis G4.
The mark [21] stands for this setting: source organism: Escherichia coli O157:H7.
Setting [22] is: source organism: Zaire ebolavirus.
[23] abbreviates: source organism: Sudan ebolavirus.
Where [24] appears, read: source organism: Helicobacter pylori 26695.
[25] abbreviates: source organism: Vaccinia virus.

In the experiment with HLA-C*06:02 (source organism: human gammaherpesvirus 4), RRVRRRVLV gave a Kd of 0.316 µM.

With HSETVIHRY, the Kd with HLA-A*01:01 [1] is 0.0144 µM; in the experiment with HLA-B*58:01 [2] (source organism: Shigella boydii CDC 3083-94) it was at least 20 µM; with HLA-B*15:01 [3], 3 µM.

Consider GTKAWVMNR, for which the results for the Kd with HLA-A*03:01 [4] and with HLA-A*31:01 [5] (source organism: Escherichia coli 101-1) were 4.5 µM and 0.0033 µM, respectively.

Take LTQRRTTPR: the results for the Kd with HLA-A*31:01 [5] (source organism: Burkholderia mallei FMH), with HLA-A*11:01 (setting [16]) and with HLA-A*03:01 [6] (setting [16]) were 0.0131 µM, 0.0526 µM and 1.86 µM, respectively.

For LTIPTIMGR, the Kd was at least 5 µM in the experiment with HLA-B*45:06 (setting [17]); at least 5 µM in the experiment with HLA-B*15:42 (setting [17]); 0.00255 µM with HLA-A*31:01 [5] (setting [17]); at least 5 µM with HLA-B*83:01 (setting [17]); 0.003 µM in the experiment with HLA-A*11:01 (setting [18]); 0.93 µM with HLA-A*03:01 [6] (setting [18]).

In turn, RSSKLVMRY returned a Kd in the experiment with HLA-B*58:01 [2] (source organism: Yersinia pestis Nepal516) of 0.0183 µM.

Sequence KGIHPQNHL gave a Kd in the experiment with HLA-B*58:01 [2] (source organism: Escherichia coli) of at least 20 µM.

On to VVTLIPLCR, for which the Kd with HLA-A*31:01 [5] (setting [19]) came to 0.0301 µM; in the experiment with HLA-A*11:01 (setting [19]) it was 0.454 µM.

Take WMRWGGWPF: the Kd is at least 5 µM in the experiment with HLA-B*45:06 (setting [20]); 0.418 µM with HLA-B*46:01; at least 5 µM in the experiment with HLA-B*15:42 (setting [20]); at least 5 µM with HLA-B*83:01 (setting [20]); at least 20 µM with HLA-C*15:02; 4.66 µM in the experiment with HLA-B*18:01. Also, the results for the Kd with HLA-B*40:01 (source organism: Bordetella avium), with HLA-C*14:02 and with HLA-C*06:02 (setting [20]) were 0.512 µM, 4.72 µM and at least 20 µM, respectively.

With RRNDVARIF, the Kd was at least 20 µM with HLA-A*01:01 [7]; at least 20 µM in the experiment with HLA-B*44:02; 1.9 µM with HLA-B*08:01; 0.12 µM with HLA-B*27:05; at least 20 µM in the experiment with HLA-B*40:01 (setting [21]); at least 20 µM with HLA-A*02:01 [8]. Moreover, the Kd is at least 20 µM with HLA-B*07:02 [9]; at least 20 µM with HLA-A*11:01 (setting [21]); at least 20 µM with HLA-A*03:01 [6] (setting [21]); at least 20 µM with HLA-B*58:01 [10]; at least 20 µM with HLA-A*69:01; 0.022 µM with HLA-C*06:02 (source organism: Escherichia coli O157:H7 str. EDL933). Moreover, the Kd was at least 20 µM with HLA-A*26:01, at least 20 µM with HLA-B*15:01 [11], at least 20 µM with HLA-A*31:01 [12] and 0.041 µM with HLA-C*07:02.

LKASGRYQW gave a Kd in the experiment with HLA-B*58:01 [2] (source organism: Escherichia coli O139:H28 str. E24377A) of 0.879 µM.

As for ARLLNLSGV, the IC50 with HLA-A*02:01 [13] (setting [22]) was 9.98 µM; with HLA-A*24:02 (setting [22]) it was 32.8 µM; with HLA-B*07:02 [14] (setting [22]), at least 152 µM.

Regarding LLQRWGGTC, the IC50 in the experiment with HLA-A*02:01 [13] (setting [22]) is 2.49 µM; with HLA-B*07:02 [14] (setting [22]), at least 473 µM; with HLA-B*15:01 [15] (setting [22]) it was 41.3 µM.

For the sequence FQKAFSMPL, the IC50 with HLA-A*02:01 [13] (setting [23]) was determined as 0.784 µM; with HLA-A*24:02 (setting [23]), 27.5 µM; with HLA-B*07:02 [14] (setting [23]), 16 µM; with HLA-B*15:01 [15] (setting [23]), 2.11 µM.

As to RPVVLTGGT, the IC50 was at least 89.9 µM with HLA-A*02:01 [13] (source organism: Variola virus), 0.104 µM in the experiment with HLA-A*24:02 (source organism: Variola virus) and 24.1 µM with HLA-B*07:02 [14] (source organism: Variola virus).

In the case of FPIQDFPII, the Kd was at least 5 µM in the experiment with HLA-B*45:06 (setting [24]); at least 5 µM with HLA-C*04:01; at least 5 µM with HLA-B*15:42 (setting [24]); 2.74 µM with HLA-B*83:01 (setting [24]); 0.156 µM with HLA-B*51:01.

As to FANPLSNPF, the Kd with HLA-B*15:03 is 0.00192 µM. The IC50 worked out at 2.53 µM with HLA-A*02:01 [13] (setting [25]), 2.78 µM with HLA-A*24:02 (setting [25]), 69.1 µM with HLA-B*07:02 [14] (setting [25]) and 5.74 µM in the experiment with HLA-B*15:01 [15] (setting [25]).
